Data published in patent US20030032595A1.

Biological target: Kv1.3 of rat L6 skeletal muscle cells (rat) (UniProt P15384)
Experiment: cell-based or functional assay

Chain of Kv1.3 of rat L6 skeletal muscle cells (rat) (P15384 whole entry): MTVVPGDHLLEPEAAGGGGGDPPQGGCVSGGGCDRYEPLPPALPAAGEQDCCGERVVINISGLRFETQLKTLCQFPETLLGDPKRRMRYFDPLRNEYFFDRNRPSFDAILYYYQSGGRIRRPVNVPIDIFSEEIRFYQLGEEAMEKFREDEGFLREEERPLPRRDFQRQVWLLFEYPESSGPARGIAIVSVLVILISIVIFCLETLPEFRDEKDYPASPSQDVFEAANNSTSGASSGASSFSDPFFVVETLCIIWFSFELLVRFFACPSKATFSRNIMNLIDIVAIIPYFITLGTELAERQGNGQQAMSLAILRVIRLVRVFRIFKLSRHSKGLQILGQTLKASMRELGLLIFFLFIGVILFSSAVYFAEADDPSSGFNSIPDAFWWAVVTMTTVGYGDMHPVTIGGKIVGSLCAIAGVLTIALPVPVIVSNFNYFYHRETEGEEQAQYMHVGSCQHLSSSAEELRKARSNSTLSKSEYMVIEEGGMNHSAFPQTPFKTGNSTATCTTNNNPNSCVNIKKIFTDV

Question: For “margatoxin (from UniProt P40755 1-39) (peptide)”, which concentration necessary for 1/2 maximal increase in glucose uptake (L6 cells) is on record?
Answer: 53 nM
